Experimental data taken from publication PMC3834253, “Attenuation of VEGFR-2 Expression by sFlt-1 and Low Oxygen in Human Placenta” (PLoS ONE, 2013).

Biological target: T1, Vascular endothelial growth factor receptor 2 (VEGFR-2) (human (endogenous in placenta), UniProt P35968 20-1356)
T1 construct: VEGF receptor-2 (VEGFR-2, also known as KDR), human, endogenous in placental tissue; precipitated with a monoclonal VEGFR-2 antibody (Cell Signaling Technology); Endogenous receptor in frozen placental tissue lysates; bait of the co-immunoprecipitation; also called VEGF receptor-2; KDR; source: endogenous, human placental tissue lysate
Assay: co-IP; human placental tissue lysates (8, 12 and 35 weeks of gestation; preeclamptic placentae), 500 ug protein, precleared with Protein-A Agarose, precipitated with 1 ug monoclonal VEGFR-2 antibody overnight at 4 C, washed 3 times in ice cold RIPA buffer, blotted for sFlt-1
Conditions: partners not purified

T1 sequence (P35968 20-1356): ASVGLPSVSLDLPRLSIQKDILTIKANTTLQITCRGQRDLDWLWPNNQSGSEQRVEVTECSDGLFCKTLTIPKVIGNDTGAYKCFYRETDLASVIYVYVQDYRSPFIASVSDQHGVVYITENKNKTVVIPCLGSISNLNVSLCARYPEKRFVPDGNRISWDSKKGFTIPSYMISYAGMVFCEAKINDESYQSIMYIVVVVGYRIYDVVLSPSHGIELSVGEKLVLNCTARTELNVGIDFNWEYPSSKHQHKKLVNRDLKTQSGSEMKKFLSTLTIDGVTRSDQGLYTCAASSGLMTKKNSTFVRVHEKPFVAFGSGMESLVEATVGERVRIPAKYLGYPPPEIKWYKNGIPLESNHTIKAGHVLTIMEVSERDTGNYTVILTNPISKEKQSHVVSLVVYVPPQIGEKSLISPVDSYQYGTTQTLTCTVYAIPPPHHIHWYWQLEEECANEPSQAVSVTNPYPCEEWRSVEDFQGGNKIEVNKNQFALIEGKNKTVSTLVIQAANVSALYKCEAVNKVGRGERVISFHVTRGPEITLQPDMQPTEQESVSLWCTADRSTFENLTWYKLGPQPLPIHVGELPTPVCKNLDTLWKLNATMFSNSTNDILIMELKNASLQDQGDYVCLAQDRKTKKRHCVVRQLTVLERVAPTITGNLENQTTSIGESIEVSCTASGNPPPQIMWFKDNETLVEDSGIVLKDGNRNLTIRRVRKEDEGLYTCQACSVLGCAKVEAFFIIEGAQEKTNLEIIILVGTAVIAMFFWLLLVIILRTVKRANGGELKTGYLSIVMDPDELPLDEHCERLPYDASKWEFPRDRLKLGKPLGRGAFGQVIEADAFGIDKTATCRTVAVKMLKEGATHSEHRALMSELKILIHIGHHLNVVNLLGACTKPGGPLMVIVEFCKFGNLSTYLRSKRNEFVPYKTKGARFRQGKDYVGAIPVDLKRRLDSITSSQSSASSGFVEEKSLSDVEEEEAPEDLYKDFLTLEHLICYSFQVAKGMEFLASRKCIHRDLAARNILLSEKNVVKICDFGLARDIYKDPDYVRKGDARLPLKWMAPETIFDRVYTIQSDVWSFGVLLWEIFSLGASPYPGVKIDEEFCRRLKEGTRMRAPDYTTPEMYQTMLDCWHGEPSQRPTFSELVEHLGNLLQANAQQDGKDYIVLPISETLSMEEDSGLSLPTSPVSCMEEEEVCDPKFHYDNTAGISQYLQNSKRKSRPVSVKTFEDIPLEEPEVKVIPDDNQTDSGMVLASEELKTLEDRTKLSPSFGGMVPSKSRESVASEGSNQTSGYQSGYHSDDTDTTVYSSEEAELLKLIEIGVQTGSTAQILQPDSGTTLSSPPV

B1: soluble VEGF receptor-1 (sFlt-1), 105 kDa species (sFlt-13) (natural protein, human (endogenous in placenta), UniProt P17948-2 27-687, looked up)
chain: SKLKDPELSLKGTQHIMQAGQTLHLQCRGEAAHKWSLPEMVSKESERLSITKSACGRNGKQFCSTLTLNTAQANHTGFYSCKYLAVPTSKKKETESAIYIFISDTGRPFVEMYSEIPEIIHMTEGRELVIPCRVTSPNITVTLKKFPLDTLIPDGKRIIWDSRKGFIISNATYKEIGLLTCEATVNGHLYKTNYLTHRQTNTIIDVQISTPRPVKLLRGHTLVLNCTATTPLNTRVQMTWSYPDEKNKRASVRRRIDQSNSHANIFYSVLTIDKMQNKDKGLYTCRVRSGPSFKSVNTSVHIYDKAFITVKHRKQQVLETVAGKRSYRLSMKVKAFPSPEVVWLKDGLPATEKSARYLTRGYSLIIKDVTEEDAGNYTILLSIKQSNVFKNLTATLIVNVKPQIYEKAVSSFPDPALYPLGSRQILTCTAYGIPQPTIKWFWHPCNHNHSEARCDFCSNNEESFILDADSNMGNRIESITQRMAIIEGKNKMASTLVVADSRISGIYICIASNKVGTVGRNISFYITDVPNGFHVNLEKMPTEGEDLKLSCTVNKFLYRDVTWILLRTVNNRTMHYSISKQKMAITKEHSITLNLTIMNVSLQDSGTYACRARNVYTGEEILQKKEITIRGEHCNKKAVFSRISKFKSTRNDCTTQSNVKH
notes: sFlt-1, truncated soluble splice variant of VEGFR-1 (six extracellular IgG like domains with a unique C-terminus), human; isoform assigned by the authors from the band size; Detected by blot with an sFlt-1 antibody (AF321, R&D Systems) in VEGFR-2 immunoprecipitates; also called soluble VEGFR-1; source: endogenous, human placental tissue lysate
fold co-immunoprecipitated sFlt-1 (densitometry), PE over PTC placentae: 5.98 fold
